Results: a protein production outcome set (Wang et al. 2014)

Assay: label from the status in PepcDB records

Sequence: MADLFDGMKRRMDALIAERFGMKVNINGTDCIVVESDFLAELGPVEGNGKNVVVFSGNVIPRRGDRVVLRGSEFTVTRIRRFNGKPQLTLEENNGGKGA
- protein production: not failed

Sequence: MGWEFFSLETLQELARQYGYGAVFFGIALENAGIPIPGETITLLGGFLAGSGDLSYGGVLIAAIAGAVLGDSCGYWVGRWGGWPLLTRAAQLFNIPQEKLDQARHKFSQNGAAAVFFGRFVTLLRIFAGPMAGIVRMPYGKFLLYNIGGASVWAAITVSLAYFLGRVVTIEQIIAWTTQFSWFALAAVVGMVGIYFVFHFLQKRFDQTIESTIGDRPQ
- protein production: failed

Sequence: MTWRKLSICMMVKDEEKNLKRCLESLKPILKGDEVELIVVDTGSKDRTVEIAKQYTNNIFYKPWNYNFSEMRNYTISLAKGEWIFILDADEELEDAKIILKEIEMAEKEGANAINIAVKNLVEENNKQNFVFGFSPRLFRNGFIKYEGAVHNQPIFRPPIYNSKIVIYHYGYIMNDTKLMEYKYKRTVSLLKKELEKDPLNIYYRYQLGVSYSMYGKIREAIEEFGKVYNLLKMENSEIKKGLVVVYGLYANNLLLLGLFDKALEVAEEGLNFNDEYIDLYYIAGLSLYAMGRRQEALVYFKKYMDLFKKVDQIKLLYDARVVFYNISNSYFDNVNAMVVQYLLDINNFLEAKVHIEQFKDNKLKLQYSTLLHIKEKNFNELFDFYSSCNQEDKEKVSEFIEKYITYFKFDEDERLEIYKKFSESNDVYGKYCCIITKKEKVESAILNIFDSNVFELLPSFYTKVLFRVAEKKEFLLETLKKIDVMVLRAKTAEALAAKFIDFEDVIQLLEVMKKEKADIDISARYIALALLVLLNFPRQSDERLYEIFLNYTENGILLISRLYKSEEIEEKYRYFLSEEEKYFALMYMIYLSLQEKRMDKSIKYLREAISTMPKLVKHLKRFSKDILGVDV
- protein production: failed

Sequence: MRGWTAVTDTAGTPSGDGPEQAAVPGPGGGASPIGAGLVRRRRRWLRHTAFGVAALVLGAAGAGWAVYEKLNSNITADEAAAAELARYEKERPTSLVRDAQNILLIGSDSRSGDGNSQYGRDTGTERSDTTILLHLPANRHSATAVSLPRDLMVDIPSCRRPDGTRTAPTFAMFNQAFETGGSACTIRTAEKLTNVRIDHHMVVDFSGFKEMVDAVDGVEVCLKDPIDDKDAKLRLPAGKQLLDGEQALGYVRARKSIGNGSDTDRMDRQQRFLGALVNKVQGNDVLLNPVKLYPVLDAATSSLTTDPDLASLRGLYELVRGMRNIPPERVQFLTVPRTSYVNNANRDQLVEPDAEKLFARLRADAPLEVAKDYAGYDEQSGGDGTLSGKPLDTPAGTPDPTPTFRGNTAAEDGCE
- protein production: failed

Sequence: MTRTPLTLEQLNALSDDAFTEHFAGVLEHSPHYARRAAAGRPFADVEEVAAAFARAVAADEPGAQVQLIRAHPDLAGKAALAGELTAESASEQTSAGLDRLSPEEYAEFQRLNAAYHERFGLPYVVCVRENTKDTIFEGARRRLTHTQEEEQAAALHEIGRIARLRILDLVQEGRQEKRMDGRLIRIPLEHHHHHH
- protein production: failed

Sequence: MFNAGNRIINTWLYPIQDGFVLIDTGYENGFKHFKKRISKFNIKIKDIRYIFLTHAHDDHVGFLNQILDESPNTKIVMHDKALEILYKGQNSFIGGCTSRTAFLFCQIMKLFGKGEHSFSPLKQEFEKRCILVSDKNRKEIEKELNGKIIDTPGHTDDSISLLIDDGVLFCGDSAMNGFPSTHKITIFAESKLEFIQSWKTIINTKPKMIYPGHGKPFEYSKLEQNLIYVNKINLYPLHNSKDIHRFL
- protein production: failed

Sequence: EVPDLPEEPSETAEEVVTVALRCPNGRVLRRRFFKSWNSQVLLDWMMKVGYHKSLYRLSTSFPRRALEVEGGSSLEDIGITVDTVLNVEEKEQSSQ
- protein production: not failed

Sequence: PLSFSLLPATRDDIAMIVDRKRAQIARTHQYDVFACGWTVTLLERLVDASAEDFGLRTATLRAGGRVVAAELGLLSEGRYHLWLPIYDPEFARYSPGALMTLDTLEALAGLGVSRVDFGVDAD
- protein production: failed

Sequence: MHGSQKDTTFTKIFVGGLPYHTTDASLRKYFEGFGDIEEAVVITDRQTGKSRGYGFVTMADRAAAERACKDPNPIIDGRKANVNLAYLGAKPRSLQTGFAIGV
- protein production: not failed

Sequence: MTAEVLIGDGDVRLSPHPLRAIVLGEVHARPFTALSLPARVLHFAFDTSGQRAAADRAAMISFCESRGLQPPPPGEKHHRANFGTTTLRWEQHSEFTTYTWEIPADPAGVPFHPEASSLASPMRLLPQPGPLLVAVDLHAMPEDPPRTSPERLFDRASLAVAENSDGAALFATDFQPGPSGFVRVLVIDRGMSAERAGALVQRVLEVETYRTLALLGLPEAQRLAPSIAASERRLAEVTAEMRRAGDLANNNKLLQELTELAAEVEAGAAASLYRFGASRAYDEIMNGRLATLGERKVGGLPTWSSFLARRMKPAMRTCATTEARQSDLSLKLARAANLLRTRVDVEVEQQNQELLKSMNARTRLQLRLQTTVEGLSTAAITYYVVGLFGYMVKGAAEAGRLKIDPNLLTAGFVPIAALVIWWTIRRIRKKHIPDVD
- protein production: failed

Sequence: MMAEGGAADLDTQRSDIATLLKTSLRKGDTWYLVDSRWFKQWKKYVGFDSWDKYQMGDQNVYPGPIDNSGLLKDGDAQSLKEHLIDELDYILLPTEGWNKLVSWYTLMEGQEPIARKVVEQ
- protein production: not failed

Sequence: MNKEQLQQMRQAPGFVGALDQSGGSTPKALKAYGIQPDAYQSEEEMFDLIHQMRTRMITSPAFATGKIIGVILFERTMRGKIEGMPTADFLWEKRHIVPFLKVDKGLQDEANGVQLMKPFPELGKLCEEAVGYHVFGTKMRSVIKQANEQGIRDIVEQQFQWGKEILSHGLVPILEPEVDIHCPEKAKAEEILKRELLAQLDKMTEPVMLKITIPTVDNFYKEIIEHPMMLRVVALSGGYSREQANELLSRNHGVIASFSRALVEGLSARQTDAEFNAMLEASIEDVYQASIK
- protein production: not failed

Sequence: SRFLVLGGAGSIGQAVTKEIFKRNPKKLHVVDISENNMVELVRDIRSSFGYIDGDFQTFALDIGSLEYDAFIKADGKFDYVLNLSALKHVRSEKDPYTLMRMIDVNVFNTDKTIQQSIDAGAKKYFCVSTDKAANPVNMMGASKRIMEMFLMRKSEQIAISTARFANVAFSDGSLLHGFNQRIQKRQPIVAPND
- protein production: failed

Sequence: KEMKQIQNEFKERMDEGELLNCMRCGFCLPSCPTYIESGFQETHSPRGRIALMKAVADGMIEPDEDVERSLSLCLGCRACEPVCPSGVKYGQLLEEARDIIHQNKKHSLGE
- protein production: failed

Sequence: VEGRTVTYGQQNGTARTGYLAAPADVDSVRSARGGDALPGIVVIHEWWGLNDNVRAATRRLAGEGYRALAVDLYGGAVAETPDSAQALMGQAMREPSRLVENVRDGRAYLSSEADAPRTALLGWCFGGGMTYRTLAEEASAFDAAVAYYGTPDPLAGEALQALETPILAHFGTQDQAVPIDAARKFRDRMEDAGTSLAYHEYDAGHAFANPSGESYEPAAAEQAWTRTTDFLQTHL
- protein production: failed

Sequence: MNTSYSQSTLRHNQVLIWLCVLSFFSVLNEMVLNVSLPDIANEFNKLPASANWVNTAFMLTFSIGTALYGKLSDQLGIKNLLLFGIMVNGLGSIIGFVGHSFFPILILARFIQGIGAAAFPALVMVVVARYIPKENRGKAFGLIGSLVAMGEGVGPAIGGMVAHYIHWSYLLLIPTATIITVPFLIKLLKKEERIRGHIDMAGIILMSAGIVFFMLFTTSYRFSFLIISILAFFIFVQHIRKAQDPFVDPELGKNVFFVIGTLCGGLIFGTVAGFVSMVPYMMKDVHHLSTAAIGSGIIFPGTMSVIIFGYIGGLLVDRKGSLYVLTIGSALLSSGFLIAAFFIDAAPWIMTIIVIFVFGGLSFTKTVISTVVSSSLKEKEAGAGMSLLNFTSFLSEGTGIAIVGGLLSIGFLDHRLLPIDVDHSTYLYSNMLILFAGIIVICWLVILNVYKRSRRHG
- protein production: not failed

Sequence: MKQFVLFFISLFLLGVGARSQEMYQKKVFISSRGDSLNYRLLRPEVEKTGLQYPLVLFLHGAGERGSDNEKQLTHGGQMFLNPVNREKYPAFVLVPQCPEKDYWAYTSRPSSFIPSEMPVGQEITPVLRAVKELLDTYLDLPQVDRNRIYVVGLSMGGMATYDLAVRFPDTFAAAVPICGTVNPVRLADAANVRFRIFHGDADNVVPVEGSREAYKALKNLGAEVEYIEFPGCNHGSWNPAFNYPGFMEWLFAQRKR
- protein production: failed
